The values that follow come from patent US20050164185A1 (YEDA RESEARCH AND DEVELOPMENT CO LTD AT WEIZMANN INSTITUTE …, published 2005).

To fix the notation:
T1: wild type IFNAR2-EC (extracellular domain of human IFNAR2) (human, UniProt P48551 28-237)
T1 construct: Expressed in E. coli, non-glycosylated; also called wt; WT protein
T1 sequence: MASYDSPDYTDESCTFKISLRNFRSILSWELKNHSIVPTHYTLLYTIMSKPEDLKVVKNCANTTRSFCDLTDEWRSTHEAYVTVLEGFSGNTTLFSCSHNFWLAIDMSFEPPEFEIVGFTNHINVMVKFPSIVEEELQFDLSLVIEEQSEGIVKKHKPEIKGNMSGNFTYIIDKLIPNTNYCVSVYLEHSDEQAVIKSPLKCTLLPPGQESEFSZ

B1: IFNAR2 EC H78A/N100A mutant (receptor)
chain: T1 sequence with H78A, N100A
notes: also called R2 H78A/N100A; MIFNAR2 EC
B2: interferon beta (wild type, glycosylated, produced in CHO) (ligand, human, UniProt P01574 22-187, looked up)
chain: MSYNLLGFLQRSSNFQCQKLLWQLNGRLEYCLKDRMNFDIPEEIKQLQQFQKEDAALTIYEMLQNIFAIFRQDSSSTGWNETIVENLLANVYHQINHLKTVLEEKLEKEDFTRGKLMSSLHLKRYYGRILHYLKAKEYSHCAWTIVRVEILRNFYFINRLTGYLRN
modifications: glycosylated (site not stated)
notes: also called IFNβ; IFN-β
B3: IFNAR2 EC H78A/N100D mutant (receptor)
chain: T1 sequence with H78A, N100D

The target in experiment [1] is B2. Description: RifS, IFNAR2-EC immobilised through antibodies.
Experimental: (§1) All thermodynamic and kinetic data were obtained from label-free heterogeneous phase detection. […] This technique is similar to Biacore and is used to accurately measure affinity of binding between two proteins.
(§2) Association and dissociation kinetics were measured by standard injection protocols and corrected by blank runs. Dissociation rate constants were measured at IFN concentration in the range of 1-1000 nM in order to saturate the surface.
For experiment [2], the target named is B2. As to the kind of experiment: RifS, IFNAR2-EC immobilised through antibodies, 500 mM NaCl, pH 7.4.
Experimental: as §1, §2
Experiment [3] deals with T1, wild type IFNAR2-EC (extracellular …). Described as above.
Experimental: as §1, §2
Experiment [4] concerns the target B2. As to the kind of experiment: cell-based or functional assay.

Changes are numbered by the printed parent chain. Numbers in names are those of the source.

Turning to B1, the “fold higher affinity than wild type” value in experiment [1] was around 100 fold. Also, in experiment [2], the Kd is around 0.03 nM.

B2 returned a Kd in experiment [3] of around 3 nM.

Consider B3, for which, in experiment [4], the “IC50 (read off the curve)” value is around 0.4 nM.

For orientation: Kd means the constant that tells how readily two partners part at equilibrium.
